From the nanobody polyreactivity screen of Harvey et al. (2022) come the findings set out here.

This data set in a line: yeast display, Sf9 membrane polyspecificity reagent, FACS + sequencing; frameworks hold sequencing errors. An outline of the steps:
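Galactose-induced (36–48 hours) yeast carrying a synthetic nanobody display library were exposed to 10% biotinylated, detergent-solubilized Sf9 membrane reagent at 4 °C for 1 hour. FACS followed streptavidin microbead enrichment, using low and high (top ~1%) gates for expression (anti-HA) and reagent binding (streptavidin). Colony PCR, MiSeq 2 × 250 sequencing and CDR-length filtering followed. Labels for polyreactivity reflect the gate of origin.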
As to “QVQLVESGGGLVQAGGSLRLSCAASGRIFPAYAMGWYRQSPGKERELVASIRRGGITYADSVKGRFTISRDNAKNTVSLQMTSLNPEDTAVYYCNAHYRGWGYHMDYWGQGTQVTGSS”, the “polyreactivity (PSR sort gate)” value is on record as “low polyreactivity”.
The entry for “QVQLVESGGGLVQAGGSLRLSCAASGRIFPAYVMGWYRQSPGKERELVATIDNGGGTYYADSVKGRFTISRDNAKNTVYLQMNSLKPEDTAVYYCARDRHVRWGLKMDYWGQGTQVTVSS” is “low polyreactivity”.
Regarding “QVQLVESGGGLVQAGGSLRLSCAASGRIFPDNTMGWYRQAPGKERELVAVITYSGGSTYYADSVKGRFTISRDNAKNTVYLQMNSLKPEDTAVYYCARDDATAGDYWGQGTQVTVSS”, the “polyreactivity (PSR sort gate)” value is listed as “low polyreactivity”.
The entry for “QVQLVESGGGLVQAGGSLRLSCAASGRIFPEYAMGWYRQAPGKERELVAAISSGDNTTYADSVKGRFTISRDNAKNTVYLQMNSLIPEDTAVYYCNAGSCTTGQGGPIIEYGYWGQGTQVTVSS” is “low polyreactivity”; for “QVQLVESGGGLVQAGGSLRLSCAASGRIFPFYAMGWYRQAPGKERELVAAITQSGGSTYYADSVKGRFTISRDNAKNTVYLQMNSLKPEDTAVYYCAADYGSFLYGYPTYDYWGQGTQVTVSS” it is “low polyreactivity”; for “QVQLVESGGGLVQAGGSLRLSCAASGRIFPFYDMGWYRQAPGKEREFVARITLSGGSTYYADSVMGRFTISRDNAKNTVNLQMNSLKPEDTSVYYCSADRTSWSVLDFDYWGQGTQVTVSS” it is “low polyreactivity”.
“QVQLVESGGGLVQAGGSLRLSCAASGRIFPGNAMGWYRQAPGKEREFVAAINTRGGITYYADSVKGRFTISRDNAKNTVYLQMNSLKPEDTAVYYCNKRWSIRSGYPYTYGIYDYWGQGTQVTVSS”: the “polyreactivity (PSR sort gate)” value was “low polyreactivity”.
As to “QVQLVESGGGLVQAGGSLRLSCAASGRIFPGYAMGWYRQAPGKERELVAAISWIGGDTYYADSVKGRFTISRDNAKNTVYLQMNSLKPEDTAVYYCAARYGRHRVSWYATWRYGYWGQGTQVTVSS”, the “polyreactivity (PSR sort gate)” value is recorded as “low polyreactivity”.
For the sequence “QVQLVESGGGLVQAGGSLRLSCAASGRIFPKNAMGWYRQAPGTERELVAAISSGGRTKYADSVKGRFTISRDNAKNTVYLQMNSLKPEDTAVYYCAAYFVSKTGGYYYWGQGTQVSVSS”, the “polyreactivity (PSR sort gate)” value is reported as “high polyreactivity”.
As for “QVQLVESGGGLVQAGGSLRLSCAASGRIFPLYAMGWYRQAPGKERELVAAITSSGGSTYYPDSVKGRFTISRDNAKNTVYLQMNSLKPEDTAVYYCAADYSVYWLDYGYWGQGTQVTVSS”, the “polyreactivity (PSR sort gate)” value is on record as “low polyreactivity”.
For “QVQLVESGGGLVQAGGSLRLSCAASGRIFPPNAMGWYRQGPGKERELVAGITSSGDTTYYADSVKGRFTISRDHAKKTVNLQMHSLKPEDTAVNYCAKDDVYADDRSALFDYWGQGTQVTVSS”, the “polyreactivity (PSR sort gate)” value is “low polyreactivity”.
In the case of “QVQLVESGGGLVQAGGSLRLSCAASGRIFPRYAMAWYRQAPGKERELVARITRRGGITYYADSVKGRFTISRDNAKNTVYLQMNSLKPEDTAVYYCNVDYYRGGDFSYGYDYWGQGTQVTVSS”, the “polyreactivity (PSR sort gate)” value is recorded as “high polyreactivity”.
With “QVQLVESGGGLVQAGGSLRLSCAASGRIFPRYAMGWYRQAPGKERELFATISSGGSTYYADSVKGRFTISRDNAKNTVYLQMNSLKPEDTAVYYCAARKRPYTVINGMDYWGQGTQVTVSS” the entry was “low polyreactivity”; with “QVQLVESGGGLVQAGGSLRLSCAASGRIFPRYAMGWYRQAPGKERELVAGINSGGRTNYADSVKGRFTISRDNAKNTVYLQMNSLKPEDTAVYYCAKRTYPYGTYRSVWGYDYWGQGTQVTVSS”, “low polyreactivity”; with “QVQLVESGGGLVQAGGSLRLSCAASGRIFPRYAMGWYRQAPGKERELVATISSGGSTYYADSVKGRFTISRDNAKNTVYLQMNSLKPEDTAVYYCAARKRPYTVINGMDYCGQGTQVTVSS”, “low polyreactivity”.
Turning to “QVQLVESGGGLVQAGGSLRLSCAASGRIFPSYAMGRYRQAPGKERELVAAISRSGGRTYYADSVKGRFTISRDNAKNTVYFQMNSLKPEDTAVYYCARYGPYQSSYHYDYWGQGSQVTVSS”, the “polyreactivity (PSR sort gate)” value is recorded as “high polyreactivity”.
In the case of “QVQLVESGGGLVQAGGSLRLSCAASGRIFPSYAMGWYIQAPGKERELVAAITSSDSTYYADSVKGRFTISRDNAKNTVYLQMNSLKPEDTAVYYCAAAYSYSGWWWFGYWGQGTQVTVSS”, the “polyreactivity (PSR sort gate)” value is “high polyreactivity”.
Turning to “QVQLVESGGGLVQAGGSLRLSCAASGRIFPSYAMGWYRQAPGKERELVAAISSSGGRTYYADSVKGRFTISRDNAKNTVYLQRNSLKPEDSAVYYCAARWVQYGVRYDYWGHGTQVTVSS”, the “polyreactivity (PSR sort gate)” value is “high polyreactivity”.
“QVQLVESGGGLVQAGGSLRLSCAASGRIFPSYAMVWYIQAPGKEREMVATISYRGTSTYYADSVKGRFTISRDNAKNTVYLQMNSLKPEDTGVYYCNKATRHHFYYWGQGTQVTVSS”: the “polyreactivity (PSR sort gate)” value is listed as “high polyreactivity”.
Regarding “QVQLVESGGGLVQAGGSLRLSCAASGRIFPTNAMGWYRQAPGKERELVASITRSGSTYYADSVTGRFTISRDNAKNTVYLQMNSLKPEDTAVYYCAAYAYIFLDWGGYPYYLYEYDYWGQGTQVTVSS”, the “polyreactivity (PSR sort gate)” value was “low polyreactivity”.
Regarding “QVQLVESGGGLVQAGGSLRLSCAASGRIFPVNDMGWYRQAPGKERELVASITYSGGSTYYADSVKGRFTISRDNAKNTVYLQMNSLKPEDTAVYYCAADDGSQYYFDSPHEYDYWGQGTQVTVSS”, the “polyreactivity (PSR sort gate)” value is recorded as “low polyreactivity”.
The entry for “QVQLVESGGGLVQAGGSLRLSCAASGRIFPVYAMGWYRQAPGKERELVAAITSGVSTNYADSVKGRFTISRDNAKYTVYLQMNSLKPEDTAVYYCNKDYTTYPYYEYGYWGQGTQVTVSS” is “low polyreactivity”.
With “QVQLVESGGGLVQAGGSLRLSCAASGRIFPYNAMGWYIQGPGKERELVAAISGGGSSTYYADSVKGRFTISRDNAKNTVYLQMNSLKPEVTAVYYCAAQAWWDGEYDYWGQGTKVTVSS”, the “polyreactivity (PSR sort gate)” value is reported as “high polyreactivity”.
On to “QVQLVESGGGLVQAGGSLRLSCAASGRIFPYNAMGWYRQAPGKERELVAAIDWRDNTYYADSVKGRFSISRDNAKNTVYLQMNSLKPEDTAVYYCNVDYTDYFLNKYDYWGQGTQVTVSS”, for which the “polyreactivity (PSR sort gate)” value is “low polyreactivity”.
Consider “QVQLVESGGGLVQAGGSLRLSCAASGRIFPYNVMGWYRQAPGKERELVAAISSGGTTDYADSVKGRFTISRDNAKNTVYLQMNSLKPEDTAVYYCAATYVYWTWGYDYWGQGTQVTVSS”, for which the “polyreactivity (PSR sort gate)” value is given as “low polyreactivity”.
On to “QVQLVESGGGLVQAGGSLRLSCAASGRIFPYYAMGWYRQAPGKERELVAAISRIGGRTYYADSVKGRFTISRDNAKNTVYLQMNSLKPEDTAVYYCAAGYGGTFNCGQGTQVTVSS”, for which the “polyreactivity (PSR sort gate)” value is reported as “high polyreactivity”.
The entry for “QVQLVESGGGLVQAGGSLRLSCAASGRIFPYYTMGWYREAPGKERELVATITTGGSTNYADSVKGRFTISRDNAENTVYLQMNSLKPEDTAVYYCNKDGVVEVRFTGRQEYDYWGQGTQVTVSS” is “low polyreactivity”; for “QVQLVESGGGLVQAGGSLRLSCAASGRIFQANAMGWYRQAPGKERELVASISSGGSTNYADSVKGRFTISRDNAKNTVYLQMNSLKPEDTAVYYCAARHPSSAYWVGYYWYDYWGQGTQVTVSS” it is “low polyreactivity”; for “QVQLVESGGGLVQAGGSLRLSCAASGRIFQDYARGWYRQAPGKERELVPSIRWSSTSTYYADSVKGRFTISRDNAKNTVYLQMNSLKPEDTAVYYCNARYPYYTRTRDGRMYYWGQGTQVTVSS” it is “low polyreactivity”.
The entry for “QVQLVESGGGLVQAGGSLRLSCAASGRIFQFNVMGWYRQAPGKERELVAAISRGGGITDYADSVKGRFTISRDNAKNTVYLQMNSLKPEDTAVYYCAAVLPARGYYWGQGTQVTVSS” is “high polyreactivity”.
With “QVQLVESGGGLVQAGGSLRLSCAASGRIFQGYAMGWYRQAPGKERELLAAITVRCGTTYYADSVKGRFTISRDNAKNTVYLQMNSLKPEDTAVYYCNAAKLIHGYQSVYPGSNSRYYYWGQGTQVTVSS” the entry was “low polyreactivity”.
Turning to “QVQLVESGGGLVQAGGSLRLSCAASGRIFQGYAMGWYRQAPGKERELVAAIRTGGSTNYADSVKGRFTISRDNAKNTVYLQMNSLKPEDTAVYYCNAVGQLYFYFPRGDYWGQGTQVTVSS”, the “polyreactivity (PSR sort gate)” value was “low polyreactivity”.
In the case of “QVQLVESGGGLVQAGGSLRLSCAASGRIFQQYAMGWSRKAPGKERELVAAISRNGGSTYYADSVKGRFTISRDNAKNTVYLQMNRLKTEDTAVYYCNARRNAASTLRKDYGYWGQGTQVSVSS”, the “polyreactivity (PSR sort gate)” value is on record as “high polyreactivity”.
On to “QVQLVESGGGLVQAGGSLRLSCAASGRIFQRYAMGWYRQAPGKERELVAVITKRGGNTYYADSVKGRFTISRDNAKNTVYLQMNSLKPEDTAVYYCANRSGRSTGDYWGQGTQVTVSS”, for which the “polyreactivity (PSR sort gate)” value is on record as “high polyreactivity”.
Take “QVQLVESGGGLVQAGGSLRLSCAASGRIFQRYTMGWYRQAPGKEWEFVAAITYSGGSTHYADSVKGRFTISRDNAKNTVYLQMNSLKPEDTAVYYCATDYIRYRWYVFYGWLWRYDYWGQGTQVTVSS”: the “polyreactivity (PSR sort gate)” value is “low polyreactivity”.
Turning to “QVQLVESGGGLVQAGGSLRLSCAASGRIFQYYAMGWYRQAPGKERELVAAISSRGGSTTYADSVKGRFTISRDNAKNTVYLQMNSLKPEDTAVYYCARDWYYYPQYRQRYYYWGQGTQVTVSS”, the “polyreactivity (PSR sort gate)” value is recorded as “high polyreactivity”.
Take “QVQLVESGGGLVQAGGSLRLSCAASGRIFRAIAMGLYRQAPGKERELVAAISFSGGGTYYADSVKGRFTISRDNAKYTVYLQMNSLKPEDTAVYYCAADQFWGGEEYDYWGQGTQVTVSS”: the “polyreactivity (PSR sort gate)” value is “low polyreactivity”.
As for “QVQLVESGGGLVQAGGSLRLSCAASGRIFRAYAMGWYRQAPGKERELVASITGSGGSTYYADSVKGRFTISRDNAKNTVYLQMNSLKPEDTAVYYCAVASYRVWGVGTRFYYWGQGTQVTVSS”, the “polyreactivity (PSR sort gate)” value is “high polyreactivity”.
As to “QVQLVESGGGLVQAGGSLRLSCAASGRIFRAYARGWYRQAPGKERELVAAITRGGGTYYADSVKGRFTISRDNAKNSVYLQMNSLKPEDTAVYYCAAGRQRGPGYYFTFDYWGQGTQVTVSS”, the “polyreactivity (PSR sort gate)” value is listed as “high polyreactivity”.
With “QVQLVESGGGLVQAGGSLRLSCAASGRIFRAYVMGWYRQAPGKERELVATIDSGTSTYYADSVKGRFTISRDNAKNTVYLQMNSLKPEDTAVYYCAVPSHSRVPESFDYWGQGTQVTVSS”, the “polyreactivity (PSR sort gate)” value is “low polyreactivity”.
